Values quoted from earlier work, collected in US7235367B2, “Method using crystal structure of estrogen receptor-β complex” (Genetics Institute, LLC., priority 2000, dated 2007).

Target: ER-β (Homo sapiens, UniProt Q92731)
Conditions: co-activator, ER-β versus ER-α

Chain of ER-β (Q92731 whole entry): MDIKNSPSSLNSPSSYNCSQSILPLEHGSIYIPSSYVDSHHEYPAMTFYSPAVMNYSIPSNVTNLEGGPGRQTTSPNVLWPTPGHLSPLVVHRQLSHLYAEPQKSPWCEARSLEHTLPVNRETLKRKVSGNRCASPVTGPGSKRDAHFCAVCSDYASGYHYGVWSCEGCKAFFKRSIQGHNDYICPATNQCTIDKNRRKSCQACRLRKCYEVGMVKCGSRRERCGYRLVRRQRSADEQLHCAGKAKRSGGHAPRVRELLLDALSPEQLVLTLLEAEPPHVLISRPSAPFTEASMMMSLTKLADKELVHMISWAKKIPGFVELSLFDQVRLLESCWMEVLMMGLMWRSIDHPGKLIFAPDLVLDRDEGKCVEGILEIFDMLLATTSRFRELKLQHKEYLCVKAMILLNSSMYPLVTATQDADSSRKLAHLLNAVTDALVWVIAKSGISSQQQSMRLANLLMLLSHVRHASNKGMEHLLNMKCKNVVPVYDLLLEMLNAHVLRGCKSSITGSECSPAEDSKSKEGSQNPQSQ

SRC-1: co-activator protein that preferentially activates ER-β
preferential activation of ER subtype: preferentially activates ER-β
